Among the data in patent US20150291952 are Kd values, retold here.

The target in this series is CHK2 (UniProt O96017). Kind of series: EMSA. Particulars: SEQ:22 is the DNA template strand, RNA is its reverse complement. A general note: Mobility shift assays separate free from complexed probe on a gel.
Sequence of CHK2 (O96017 whole entry): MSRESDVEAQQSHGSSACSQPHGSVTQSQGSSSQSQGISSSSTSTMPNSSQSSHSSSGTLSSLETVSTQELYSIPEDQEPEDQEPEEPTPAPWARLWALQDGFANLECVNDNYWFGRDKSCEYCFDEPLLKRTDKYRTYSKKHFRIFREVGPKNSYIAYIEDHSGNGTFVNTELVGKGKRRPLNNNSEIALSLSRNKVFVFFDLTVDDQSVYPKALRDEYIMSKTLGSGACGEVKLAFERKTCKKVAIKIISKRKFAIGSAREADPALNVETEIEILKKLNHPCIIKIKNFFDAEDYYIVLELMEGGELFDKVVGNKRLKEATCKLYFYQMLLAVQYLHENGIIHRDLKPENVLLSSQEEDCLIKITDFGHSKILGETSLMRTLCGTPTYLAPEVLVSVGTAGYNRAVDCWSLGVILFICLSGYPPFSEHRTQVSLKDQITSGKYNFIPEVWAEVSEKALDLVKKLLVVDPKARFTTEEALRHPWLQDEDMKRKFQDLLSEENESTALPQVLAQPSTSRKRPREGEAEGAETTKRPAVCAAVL

As a reminder, the Kd is the concentration at which binding is half-saturated. A lower Kd goes with a tighter complex. Turning to “AAGCUUCGUCAAGUCUGCAGUGAANNNNNNNNNNNNNNNNNNNNNNNNNNNNNNNNNNNNNNNNNNNNNNNNNNNNNNNNNNNNNNNNNNNNNNGAAUUCGUAGAUGUGGAUCCAUUCCC [CHK2 RAPID Cycle 2 pool]”, the Kd (bulk pool, 65% bound at highest protein) was determined as 390 nM.
The sequence “AAGCUUCGUCAAGUCUGCAGUGAANNNNNNNNNNNNNNNNNNNNNNNNNNNNNNNNNNNNNNNNNNNNNNNNNNNNNNNNNNNNNNNNNNNNNNGAAUUCGUAGAUGUGGAUCCAUUCCC [CHK2 RAPID Cycle 4 pool]” had a Kd (bulk pool, 72% bound at highest protein) of 209 nM.
Consider “AAGCUUCGUCAAGUCUGCAGUGAANNNNNNNNNNNNNNNNNNNNNNNNNNNNNNNNNNNNNNNNNNNNNNNNNNNNNNNNNNNNNNNNNNNNNNGAAUUCGUAGAUGUGGAUCCAUUCCC [CHK2 RAPID Cycle 6 pool]”, for which the Kd (bulk pool, 87% bound at highest protein) worked out at 191 nM.
Sequence “AAGCUUCGUCAAGUCUGCAGUGAANNNNNNNNNNNNNNNNNNNNNNNNNNNNNNNNNNNNNNNNNNNNNNNNNNNNNNNNNNNNNNNNNNNNNNGAAUUCGUAGAUGUGGAUCCAUUCCC [CHK2 SELEX Cycle 3 pool]” yielded a Kd (bulk pool, 69% bound, FP Kd 1.6-fold higher (FIG. 8)) of 315 nM.
The sequence “AAGCUUCGUCAAGUCUGCAGUGAANNNNNNNNNNNNNNNNNNNNNNNNNNNNNNNNNNNNNNNNNNNNNNNNNNNNNNNNNNNNNNNNNNNNNNGAAUUCGUAGAUGUGGAUCCAUUCCC [CHK2 SELEX Cycle 6 pool]” showed a Kd (bulk pool, 86% bound, FP Kd 1.6-fold higher (FIG. 8)) of 281 nM.
Sequence “AAGCUUCGUCAAGUCUGCAGUGAANNNNNNNNNNNNNNNNNNNNNNNNNNNNNNNNNNNNNNNNNNNNNNNNNNNNNNNNNNNNNNNNNNNNNNGAAUUCGUAGAUGUGGAUCCAUUCCC [N70 starting RNA library]” yielded a Kd (starting library, 59% bound at highest protein) above 1000 nM.
